Here are results for two substances from publication PMC4167758.

The target of experiment [1] is SelK U92C (Homo sapiens) (UniProt Q9Y6D0). The experiment in a line: electrospray ionization mass spectrometry.
Experiment [2] has the same target. In words: redox titration with gel shift on non-reducing SDS-PAGE. In general terms: A gel shift assay detects complexes by their altered migration in electrophoresis.
Experiment [3] has the same target. The experiment in a line: SDS-PAGE under non-reducing conditions.
The target in a further experiment is SelK U92S (Homo sapiens) (UniProt Q9Y6D0). In words: SDS-PAGE at high protein concentration.

The term stoichiometry N denotes a count of units in the complex or per binding partner. For “SelK U92C (from UniProt Q9Y6D0 2-94) (natural protein)”, the stoichiometry N with SelK U92C (Homo sapiens) [1], with SelK U92C (Homo sapiens) [2] and with SelK U92C (Homo sapiens) [3] was 2 in each case.

On to “SelK U92S (from UniProt Q9Y6D0 2-94) (natural protein)”, for which the stoichiometry N with SelK U92S (Homo sapiens) came to 2.
